In assay [1] the target is T1, wildtype SARS-CoV-2 RBD Protein (Severe acute respiratory syndrome …, UniProt P0DTC2). In words: SPR. To be noted: both partners purified.
Assay [2] addresses T1, wildtype SARS-CoV-2 RBD Protein. Briefly: BLI. The conditions noted are these: both partners purified.

Numbering of substitutions follows the chain as printed.

B1: 11-2G (antibody, V domains shown)
VH: QVQLQQAGPGLVKPSQTLSLTCAISGDSVSNNSAIWNWIRQSPSRGLEWLGRTYYRSKWYNDYAVSVSSRITINPDTSKNQFSLQLNSVTPEDTAVYYCARVDILTGYSFDYWGQGTLVTVSS
VL: EIVLTQSPGTLSLSPGERATLSCRASQSVSSSFLAWYQQKPGQAPRFLIYGESYRATGIPDRFSGSGSGTDFTLTISRLEPEDFAVYYCQQYGSSLTFGGGTKVEIK
One may read the Kd as a measure of binding affinity in units of concentration. The low end stands for tighter binding, the high end for weaker binding. For B1, the Kd in assay [1] is 0.451 nM.

B2: 15-11F (antibody, V domains shown)
VH: QVQLQQSGPGLVKPSQTLSLTCAISGDSVSNNSAAWNWIRQSPSRGLEWLGRTYYRSKWYNDYAVSVSSRITINPDTSKNQFSLQLNSVTPEDTAVYYCARFSRLLGYGMDVWGQGTTVTVS
VL: B1 VL with S30I, F33Y, A35S, E52A, S53A, Y54S
Consider B2, for which, in assay [2], the binding result is “binds”.

B3: 4-2D (antibody, V domains shown)
VH: QVQLQQSGPGLVKPSQTLSLTCAISGDSVSNNSAAWNWIRQSPSRGLEWLGRTYYRSKWYNDYAVSVSSRITINPDTSKNQFSLQLNSVTPEDTAVYYCARGLWIPYYYGMDVWGQGTTVTVS
VL: B1 VL with S31N, S32I, Y54S, G100P, E105D
Consider B3, for which the binding result in assay [2] is on record as “binds”.

B4: 4-1B (antibody, V domains shown)
VH: QVQLQQSGPGLVKPSQTLSLTCAISGDSVSNNSAAWNWIRQSPSRGLEWLGRTYYRSKWYNDYAVSVSSRITINPDTSKNQFSLQLNSVTPEDTAVYYCARGVYGSGPHAFDIWGQGTMVTVSS
VL: B1 VL with G51V, E52T, Y54N
Regarding B4, the binding result in assay [2] was “binds”.

B5: 18-4A (antibody, V domains shown)
VH: QVQLQQSGPGLVKPSQTLSLTCAISGDSVSNNSAAWNWIRQSPSRGLEWLGRTYYRSKWYNDYAVSVSSRITINPDTSKNQFSLQLNSVTPEDTAVYYCAREGALLWFGEGAFDYWGQGTLVTVSS
VL: EIVLTQSPGTLSLSPGERATLSCRASHIVSSSYLAWYQQKPGQAPRFLIYGASSRATGIPDRFSGSGSGTDFTLTISRLEPEDFAVYYCQQYAGSPFTFGPGTKVDIK
The molecule B5 returned a Kd in assay [1] of 0.234 nM.
